{
  "source": "paper PMC5923263",
  "key": {"[1]": {"molecular_target": "His-tagged Sll1961 C229A (Synechocystis sp. PCC 6803)", "experiment": "SEC-MALS; size exclusion chromatography with static light scattering (Viscotek TDA 305), Superdex 75 increase 3.2/300; BSA as standard"}, "[2]": {"molecular_target": "His-tagged Sll1961 C229A (Synechocystis sp. PCC 6803)", "experiment": "SEC; His-Sll1961 reduced with 100 mM DTT for 15 min at room temperature, 60 μM; Superdex 75 increase 3.2/300 or Superdex 200 increase 3.2/300; 20 mM sodium phosphate (pH 7.4), 150 mM NaCl, 3 mM DTT; standards of 150, 66 and 44 kDa"}, "[3]": {"molecular_target": "His-tagged Sll1961 (wild type) (Synechocystis sp. PCC 6803)", "experiment": "SEC-MALS; size exclusion chromatography with static light scattering (Viscotek TDA 305), Superdex 75 increase 3.2/300; BSA as standard"}, "[4]": {"molecular_target": "His-tagged Sll1961 (wild type) (Synechocystis sp. PCC 6803)", "experiment": "SEC; His-Sll1961 reduced with 100 mM DTT for 15 min at room temperature, 60 μM; Superdex 75 increase 3.2/300 or Superdex 200 increase 3.2/300; 20 mM sodium phosphate (pH 7.4), 150 mM NaCl, 3 mM DTT; standards of 150, 66 and 44 kDa"}, "[5]": {"molecular_target": "His-tagged Sll1961 C124A (Synechocystis sp. PCC 6803)", "experiment": "SEC-MALS; size exclusion chromatography with static light scattering (Viscotek TDA 305), Superdex 75 increase 3.2/300; BSA as standard"}, "[6]": {"molecular_target": "His-tagged Sll1961 C124A (Synechocystis sp. PCC 6803)", "experiment": "SEC; His-Sll1961 reduced with 100 mM DTT for 15 min at room temperature, 60 μM; Superdex 75 increase 3.2/300 or Superdex 200 increase 3.2/300; 20 mM sodium phosphate (pH 7.4), 150 mM NaCl, 3 mM DTT; standards of 150, 66 and 44 kDa"}, "[7]": {"molecular_target": "His-tagged Sll1961 C307A (Synechocystis sp. PCC 6803)", "experiment": "SEC-MALS; size exclusion chromatography with static light scattering (Viscotek TDA 305), Superdex 75 increase 3.2/300; BSA as standard"}, "[8]": {"molecular_target": "His-tagged Sll1961 C307A (Synechocystis sp. PCC 6803)", "experiment": "SEC; His-Sll1961 reduced with 100 mM DTT for 15 min at room temperature, 60 μM; Superdex 75 increase 3.2/300 or Superdex 200 increase 3.2/300; 20 mM sodium phosphate (pH 7.4), 150 mM NaCl, 3 mM DTT; standards of 150, 66 and 44 kDa"}},
  "data": [
    {"substance": "His-tagged Sll1961 C229A (natural protein)", "values": [
      {"measurement": "stoichiometry N", "setting": "[1]", "value": 2},
      {"measurement": "stoichiometry N", "setting": "[2]", "value": 2}
    ]},
    {"substance": "His-tagged Sll1961 (wild type) (natural protein)", "values": [
      {"measurement": "stoichiometry N", "setting": "[3]", "value": 2},
      {"measurement": "stoichiometry N", "setting": "[4]", "value": 2}
    ]},
    {"substance": "His-tagged Sll1961 C124A (natural protein)", "values": [
      {"measurement": "stoichiometry N", "setting": "[5]", "value": 2},
      {"measurement": "stoichiometry N", "setting": "[6]", "value": 2}
    ]},
    {"substance": "His-tagged Sll1961 C307A (natural protein)", "values": [
      {"measurement": "stoichiometry N", "setting": "[7]", "value": 2},
      {"measurement": "stoichiometry N", "setting": "[8]", "value": 2}
    ]}
  ]
}
